The source of these data is patent publication US20260152552A1 (CURON BIOPHARMACEUTICAL SHANGHAI, published 2026).

Positions count from the first letter of the chain named.

B1: humanized anti-L1CAM antibody hz49E10H1H7L6 (antibody, V domains shown)
VH: QVQLQESGPGLVKPSQTLSLTCTVSGGSISSDYAWNWIRQPPGKGLEWMGYITYSGTTTYNPSLKSRITISRDTSKNQFSLKLSSVTAADTAVYYCTLDHYGNYAYFDYWGQGTTVTVSS
VL: DIQMTQSPSSLSASVGDRVTITCRASSSVSFMHWYQQKPGKAPKPWIYASSNLVSGVPSRFSGSGSGTDFTLTISSLQPEDFATYYCQQWSSNPSTFGGGTKVEIK
B2: humanized anti-L1CAM antibody hz103E9B3H6L5 (antibody, V domains shown)
VH: EVQLVQSGAEVKKPGASVKVSCKASGYTFTSYTMHWVRQAPGQGLEWMGDINPNYGGTSYNEKFKDRATMTTDTSTSTAYMELRSLRSDDTAVYYCAREGATGTWYFDVWGQGTTVTVSS
VL: B1 VL with R24S, H33F, W46L, A49L, S50T, V54A, S91R, S95P
B3: humanized anti-L1CAM antibody hz103E9B3H7L6 (antibody, V domains shown)
VH: B2 VH with M48I, M70L
VL: B1 VL with R24S, H33F, A49L, S50T, V54A, S91R, S95P
B4: humanized anti-L1CAM antibody hz49E10H1H5L5 (antibody, V domains shown)
VH: B1 VH with Q1D, T97A, L98R
VL: B1 VL with P45L, W46L
B5: humanized anti-L1CAM antibody hz103E9B3H6L4 (antibody, V domains shown)
VH: B2 VH
VL: B1 VL with R24S, H33F, P45L, W46L, A49L, S50T, V54A, S91R, S95P
B6: humanized anti-L1CAM antibody hz103E9B3H5L5 (antibody, V domains shown)
VH: B2 VH with A68V
VL: B1 VL with R24S, H33F, W46L, A49L, S50T, V54A, S91R, S95P
B7: humanized anti-L1CAM antibody hz49E10H1H7L7 (antibody, V domains shown)
VH: B1 VH
VL: B1 VL with D1Q, F70Y
B8: humanized anti-L1CAM antibody hz49E10H1H5L6 (antibody, V domains shown)
VH: B1 VH with Q1D, T97A, L98R
VL: B1 VL
B9: humanized anti-L1CAM antibody hz103E9B3H5L6 (antibody, V domains shown)
VH: B2 VH with A68V
VL: B1 VL with R24S, H33F, A49L, S50T, V54A, S91R, S95P
B10: humanized anti-L1CAM antibody hz49E10H1H7L5 (antibody, V domains shown)
VH: B1 VH
VL: B1 VL with P45L, W46L
B11: humanized anti-L1CAM antibody hz49E10H1H8L7 (antibody, V domains shown)
VH: B1 VH with Q1D, K44N
VL: B1 VL with D1Q, F70Y
B12: humanized anti-L1CAM antibody hz49E10H1H4L5 (antibody, V domains shown)
VH: B1 VH with M49I, I68V, R72V, T97A, L98R
VL: B1 VL with P45L, W46L
B13: humanized anti-L1CAM antibody hz103E9B3H9L6 (antibody, V domains shown)
VH: B2 VH with M48I, M70L, T72V, T74K
VL: B1 VL with R24S, H33F, A49L, S50T, V54A, S91R, S95P
B14: humanized anti-L1CAM antibody hz103E9B3H5L4 (antibody, V domains shown)
VH: B2 VH with A68V
VL: B1 VL with R24S, H33F, P45L, W46L, A49L, S50T, V54A, S91R, S95P
B15: humanized anti-L1CAM antibody hz49E10H1H6L5 (antibody, V domains shown)
VH: B1 VH with Q1D, M49I, I68V
VL: B1 VL with P45L, W46L
B16: humanized anti-L1CAM antibody hz103E9B3H7L5 (antibody, V domains shown)
VH: B2 VH with M48I, M70L
VL: B1 VL with R24S, H33F, W46L, A49L, S50T, V54A, S91R, S95P
B17: humanized anti-L1CAM antibody hz103E9B3H6L6 (antibody, V domains shown)
VH: B2 VH
VL: B1 VL with R24S, H33F, A49L, S50T, V54A, S91R, S95P
B18: humanized anti-L1CAM antibody hz103E9B3H9L5 (antibody, V domains shown)
VH: B2 VH with M48I, M70L, T72V, T74K
VL: B1 VL with R24S, H33F, W46L, A49L, S50T, V54A, S91R, S95P
B19: humanized anti-L1CAM antibody hz49E10H1H4L7 (antibody, V domains shown)
VH: B1 VH with M49I, I68V, R72V, T97A, L98R
VL: B1 VL with D1Q, F70Y
B20: humanized anti-L1CAM antibody hz103E9B3H7L4 (antibody, V domains shown)
VH: B2 VH with M48I, M70L
VL: B1 VL with R24S, H33F, P45L, W46L, A49L, S50T, V54A, S91R, S95P
B21: humanized anti-L1CAM antibody hz49E10H1H4L6 (antibody, V domains shown)
VH: B1 VH with M49I, I68V, R72V, T97A, L98R
VL: B1 VL
B22: humanized anti-L1CAM antibody hz103E9B3H9L4 (antibody, V domains shown)
VH: B2 VH with M48I, M70L, T72V, T74K
VL: B1 VL with R24S, H33F, P45L, W46L, A49L, S50T, V54A, S91R, S95P
B23: humanized anti-L1CAM antibody hz49E10H1H8L5 (antibody, V domains shown)
VH: B1 VH with Q1D, K44N
VL: B1 VL with P45L, W46L
B24: humanized anti-L1CAM antibody hz49E10H1H6L6 (antibody, V domains shown)
VH: B1 VH with Q1D, M49I, I68V
VL: B1 VL
B25: humanized anti-L1CAM antibody hz49E10H1H5L7 (antibody, V domains shown)
VH: B1 VH with Q1D, T97A, L98R
VL: B1 VL with D1Q, F70Y
B26: humanized anti-L1CAM antibody hz49E10H1H6L7 (antibody, V domains shown)
VH: B1 VH with Q1D, M49I, I68V
VL: B1 VL with D1Q, F70Y
B27: humanized anti-L1CAM antibody hz49E10H1H8L6 (antibody, V domains shown)
VH: B1 VH with Q1D, K44N
VL: B1 VL
B28: humanized anti-L1CAM antibody hz26A12C1H3L2 (antibody, V domains shown)
VH: QVQLVQSGAEVKKPGSSVKVSCKASGYTFTNYWIQWVRQAPGQGLEWIGYINPSTYYSDYAQKFQGRVTLTADESTSTAYMELSSLRSEDTAVYYCARRQFGLPLFDYWGQGTTVTVSS
VL: DIQMTQSPSSLSASVGDRVTITCRASQDVGTAVAWYQQKPGKVPKLLIYWASTLHSGVPSRFSGSGSGTDFTLTISSLQPEDVATYYCQQYSNYPLTFGGGTKVEIK
B29: humanized anti-L1CAM antibody hz26A12C1H2L2 (antibody, V domains shown)
VH: B28 VH with I48M, L70I
VL: B28 VL
B30: humanized anti-L1CAM antibody hz26A12C1H4L1 (antibody, V domains shown)
VH: B28 VH with A61N, E74K
VL: B28 VL with V33L, H55Q
B31: humanized anti-L1CAM antibody hz26A12C1H2L3 (antibody, V domains shown)
VH: B28 VH with I48M, L70I
VL: B28 VL with Y87F
B32: humanized anti-L1CAM antibody hz26A12C1H4L2 (antibody, V domains shown)
VH: B28 VH with A61N, E74K
VL: B28 VL
B33: humanized anti-L1CAM antibody hz26A12C1H3L1 (antibody, V domains shown)
VH: B28 VH
VL: B28 VL with V33L, H55Q
B34: humanized anti-L1CAM antibody hz26A12C1H4L3 (antibody, V domains shown)
VH: B28 VH with A61N, E74K
VL: B28 VL with Y87F
B35: humanized anti-L1CAM antibody hz26A12C1H3L3 (antibody, V domains shown)
VH: B28 VH
VL: B28 VL with Y87F
B36: humanized anti-L1CAM antibody hz26A12C1H2L1 (antibody, V domains shown)
VH: B28 VH with I48M, L70I
VL: B28 VL with V33L, H55Q

In the experiment the target is T1, human L1CAM (L1 cell adhesion molecule), endogenously expressed on the surface of HeLa cells (human, UniProt P32004 20-1257).
T1 construct: whole, on cells; also called CD171
T1 sequence (P32004 20-1257): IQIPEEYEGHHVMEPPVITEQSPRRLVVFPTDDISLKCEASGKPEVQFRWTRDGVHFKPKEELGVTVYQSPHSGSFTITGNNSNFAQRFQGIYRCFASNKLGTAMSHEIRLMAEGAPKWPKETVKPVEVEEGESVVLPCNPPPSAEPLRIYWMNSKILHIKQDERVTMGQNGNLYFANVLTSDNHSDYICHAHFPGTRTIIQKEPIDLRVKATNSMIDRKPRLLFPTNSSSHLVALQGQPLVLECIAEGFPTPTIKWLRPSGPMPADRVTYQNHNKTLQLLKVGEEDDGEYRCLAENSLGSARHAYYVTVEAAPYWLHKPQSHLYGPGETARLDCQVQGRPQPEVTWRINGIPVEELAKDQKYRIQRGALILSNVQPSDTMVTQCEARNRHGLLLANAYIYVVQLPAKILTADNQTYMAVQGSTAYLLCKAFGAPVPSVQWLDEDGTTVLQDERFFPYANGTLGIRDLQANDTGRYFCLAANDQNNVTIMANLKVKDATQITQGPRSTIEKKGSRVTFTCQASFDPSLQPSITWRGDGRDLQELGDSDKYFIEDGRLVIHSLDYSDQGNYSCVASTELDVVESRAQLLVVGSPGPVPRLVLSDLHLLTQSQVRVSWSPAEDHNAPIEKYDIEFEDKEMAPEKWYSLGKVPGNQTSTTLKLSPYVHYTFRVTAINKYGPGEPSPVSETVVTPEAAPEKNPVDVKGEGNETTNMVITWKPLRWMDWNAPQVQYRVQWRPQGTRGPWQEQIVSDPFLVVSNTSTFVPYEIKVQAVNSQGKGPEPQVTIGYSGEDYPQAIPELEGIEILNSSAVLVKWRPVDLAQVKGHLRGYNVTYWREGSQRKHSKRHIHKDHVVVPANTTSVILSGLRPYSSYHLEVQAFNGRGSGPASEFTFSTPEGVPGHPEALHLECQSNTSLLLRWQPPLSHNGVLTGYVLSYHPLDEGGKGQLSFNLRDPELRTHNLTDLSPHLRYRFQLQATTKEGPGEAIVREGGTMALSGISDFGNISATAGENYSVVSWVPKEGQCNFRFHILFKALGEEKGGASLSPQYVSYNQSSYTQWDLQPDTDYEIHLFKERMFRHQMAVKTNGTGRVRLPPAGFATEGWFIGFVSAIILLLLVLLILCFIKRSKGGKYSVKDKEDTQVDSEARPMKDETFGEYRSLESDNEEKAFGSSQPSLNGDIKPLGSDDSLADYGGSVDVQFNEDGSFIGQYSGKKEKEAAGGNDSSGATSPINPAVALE
Kind of experiment: flow cytometry on HeLa cells (endogenous human L1CAM). As for the experimental part:
The experimental principle is as follows: HeLa cells express high levels of L1CAM protein on their surface. After incubating humanized L1CAM antibodies with the cells, the binding ability of the antibodies to L1CAM on the surface of HeLa cells can be determined by flow cytometry. The experimental method is descripted as following: Humanized L1CAM antibodies (Human IgG1-Kappa) are diluted in complete medium in a four-fold serial dilution, with seven concentration gradient points. HeLa cells are cultured in DMEM complete medium (Corning, 10-013-CVR) containing 10% FBS (Gibco, 10099-141) and 100 U/mL penicillin mixture (Thermofisher, 15140122). When the cell coverage in the culture container reaches 80-90%, TrypLE (Thermofisher, 12604-013) is used to digest the HeLa cells from the culture container, and they are seeded in a 96-well plate (AXYGEN, P-96-450V-C) at a density of 2.2×10⁶ cells/ml, with 100,000 cells (45 μL complete medium) per well. Then, 5 μL of the antibody dilution is added to each well, gently mixed, and the 96-well plate is incubated at 4° C. for 1 hour. Then, 150 μL of PBS solution containing 2% FBS (Corning, 21-040-CVC) is added to each well, centrifuged at 1400 rpm for 4 minutes, the supernatant is removed, and the wells are washed once more. Then, 50 μL of Alexa Flour 647-labeled goat anti-human fluorescent secondary antibody (Jacksonimmuno, 109-605-088) diluted 1:800 is added to each well, and the 96-well plate is incubated at 4° C. for 0.5 hours. The cells are washed twice with PBS solution containing 2% FBS, then resuspended in 120 μL of PBS, and the cell surface fluorescence signal is detected using a flow cytometer (BD FACS Celesta), obtaining the median fluorescence intensity (MFI). A dose-response curve is generated, and the half-maximal effective concentration (EC50) is calculated using non-linear regression with GraphPad software.
For orientation: In flow cytometry, cells or beads pass a laser one at a time.
Regarding B1, the response was half-maximal at 1.05 nM (EC50). In the case of B2 it was 1.48 nM. B3 had an EC50 of 2.03 nM. Molecule B4 registered an EC50 of 0.633 nM. As for B5, the EC50 is 6.59 nM.

B6 registered a concentration giving a half-maximal response (EC50) of 1.68 nM.

Take B7: the EC50 is 0.852 nM. B8 had an EC50 of 0.404 nM.

As for B9, the midpoint of the response, the EC50, lay at 1.93 nM. For the molecule B10, the midpoint of the response, the EC50, lay at 10.4 nM. B11: a half-maximal effect (EC50) was put at 0.82 nM. With B12, the EC50 stood at 2.15 nM. B13 yielded an EC50 of 2.06 nM. The molecule B14 returned a half-maximal effective concentration (EC50) of 6.84 nM.

B15: the EC50 came to 24.3 nM. Take B16: the EC50 is 2.13 nM.

Consider B17, for which the midpoint of the response, the EC50, lay at 2.18 nM. The molecule B18 displayed a 50% effective concentration (EC50) of 1.96 nM. Take B19: the concentration for a half-maximal effect (EC50) stood at 0.676 nM. B20: the concentration for a half-maximal effect (EC50) amounted to 5.32 nM.

Molecule B21 yielded a 50% effective concentration (EC50) of 0.853 nM.

The molecule B22 showed an EC50 of 5.56 nM. B23 came in with a concentration giving a half-maximal response (EC50) of 9.27 nM. The molecule B24 displayed an EC50 of 1.03 nM. Then B25, with 0.377 nM. As to B26, the EC50 is 0.996 nM. Molecule B27 yielded a concentration giving a half-maximal response (EC50) of 1.06 nM. For B28, the midpoint of the response, the EC50, lay at 2.33 nM. Turning to B29, the concentration for a half-maximal effect (EC50) is 7.82 nM.

As to B30, the concentration for a half-maximal effect (EC50) came out at 0.646 nM. Then B31, with 0.853 nM; and B32, with 0.562 nM; and B33, with 2.99 nM. With B34, the EC50 is 0.738 nM.

B35: the EC50 amounted to 0.838 nM. In turn, B36 had an EC50 of 24.7 nM.

Broadly, the EC50 is the concentration at which the effect is half-maximal. Read a high EC50 as lower potency in that assay.
